Target: ORL1 (Opioid Receptor-Like 1) receptor stably expressed on recombinant CHO(ORL1^+) cells (UniProt P41146 1-370, limits assumed)
Assay: cell-based or functional assay

Sequence of ORL1 (Opioid Receptor-Like 1) receptor stably expressed on recombinant CHO(ORL1^+) cells (P41146 whole entry): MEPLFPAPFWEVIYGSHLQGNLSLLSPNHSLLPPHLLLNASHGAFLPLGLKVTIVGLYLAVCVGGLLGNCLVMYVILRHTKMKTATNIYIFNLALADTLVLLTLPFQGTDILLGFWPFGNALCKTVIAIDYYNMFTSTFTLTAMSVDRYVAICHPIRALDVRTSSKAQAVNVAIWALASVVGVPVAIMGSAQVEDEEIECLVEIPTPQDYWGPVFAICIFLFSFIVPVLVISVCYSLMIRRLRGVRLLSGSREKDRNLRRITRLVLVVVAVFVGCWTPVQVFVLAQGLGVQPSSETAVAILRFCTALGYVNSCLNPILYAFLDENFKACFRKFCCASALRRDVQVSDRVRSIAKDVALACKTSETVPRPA

B1: ^1Tyr analogue of the synthetic heptadecapeptide (peptide)
peptide: YGGFTGARKSARKLANQ
  inhibition of forskolin-induced accumulation of cAMP in CHO cells expressing the receptor, IC50: 1 nM

Source: EP1241259A1 (UNIVERSITE LIBRE DE BRUXELLES, dated 2002)
